Measured values reported in patent publication US20220089698A1 (published 2022).

Columns and labels:
[1] = molecular target: HIV gp120 CAAN (HIV); experiment: single-point ELISA; also: test concentration or dose not given here
[2] = molecular target: HIV gp120 Bal (HIV); experiment: single-point ELISA; also: test concentration or dose not given here

| Binder | ELISA (A450) [1] [A450] | ELISA (A450) [2] [A450] |
| --- | --- | --- |
| 1.1.24-1 (antibody, human IgG1, kappa) heavy: QVQLLQSGAAVTKPGASVRVSCEASGYNIRDYFIHWWRQAPGQGLQWVGWINPKTGQPNNPRQFQGRVSLTRHASWDFDTFSFYMDLKALRSDDTAVYFCARQRSDYWDFDVWGSGTQVTVSSASTKGPSVFPLAPSSKSTSGGTAALGCLVKDYFPEPVTVSWNSGALTSGVHTFPAVLQSSGLYSLSSVVTVPSSSLGTQTYICNVNHKPSNTKVDKKVEPKSCDKTHTCPPCPAPELLAGPDVFLFPPKPKDTLMISRTPEVTCVVVDVSHEDPEVKFNWYVDGVEVHNAKTKPREEQYNSTYRVVSVLTVLHQDWLNGKEYKCKVSNKALPLPEEKTISKAKGQPREPQVYTLPPSREEMTKNQVSLTCLVKGFYPSDIAVEWESNGQPENNYKTTPPVLDSDGSFFLYSKLTVDKSRWQQGNVFSCSVLHEALHSHYTQKSLSLSPGK light: DIQMTQSPSSLSASVGDTVTITCQANGYLNWYQQRRGKAPKLLIYDGSKLERGVPSRFSGRRWGQEYNLTINNLQPEDIATYFCQVYEFVVPGTRVDLKRTVAAPSVFIFPPSDEQLKSGTASVVCLLNNFYPREAKVQWKVDNALQSGNSQESVTEQDSKDSTYSLSSTLTLSKADYEKHKVYACEVTHQGLSSPVTKSFNRGEC | 0.98 | 0.88 |
| 1.12.15-1 (antibody, human IgG1, kappa) heavy: QVQLLQSGAAVTKPGASVRVSCEASGYNIRDYFIHWVRQAPGQGLQWVGWINPKTGQPNNPRQFQGRVSLTRHASWDFDTFSFYMDLKALRSDDTAVYFCARQRSDYWDFDVWGSGTQVTVSSASTKGPSVFPLAPSSKSTSGGTAALGCLVKDYFPEPVTVSWNSGALTSGVHTFPAVLQSSGLYSLSSVVTVPSSSLGTQTYICNVNHKPSNTKVDKKVEPKSCDKTHTCPPCPAPELLAGPDVFLFPPKPKDTLMISRTPEVTCVVVDVSHEDPEVKFNWYVDGVEVHNAKTKPREEQYNSTYRVVSVLTVLHQDWLNGKEYKCKVSNKALPLPEEKTISKAKGQPREPQVYTLPPSREEMTKNQVSLTCLVKGFYPSDIAVEWESNGQPENNYKTTPPVLDSDGSFFLYSKLTVDKSRWQQGNVFSCSVLHEALHSHYTQKSLSLSPGK light: DIQMTQSPSSLSASVGDTVTITCQANGYLNWYQQRRGKAPKLLIYDGSKLERGVPSRFSGRRWGQEYNLTINNLQPEDIATYFCQVYEFFVPGTRLDLKRTVAAPSVFIFPPSDEQLKSGTASVVCLLNNFYPREAKVQWKVDNALQSGNSQESVTEQDSKDSTYSLSSTLTLSKADYEKHKVYACEVTHQGLSSPVTKSFNRGEC | 0.63 | 0.69 |
| 1.1.25-1 (antibody, human IgG1, kappa) heavy: QVQLLQSGAAVTKPGASVRVSCEASGYNIRDYFIHWWRQAPGQGLQWVGWINPKTGQPNNPRQFQGRVSLTRHASWDFDTFSFYMDLKALRSDDTAVYFCARQRSDYWDFDVWGSGTQVTVSSASTKGPSVFPLAPSSKSTSGGTAALGCLVKDYFPEPVTVSWNSGALTSGVHTFPAVLQSSGLYSLSSVVTVPSSSLGTQTYICNVNHKPSNTKVDKKVEPKSCDKTHTCPPCPAPELLAGPDVFLFPPKPKDTLMISRTPEVTCVVVDVSHEDPEVKFNWYVDGVEVHNAKTKPREEQYNSTYRVVSVLTVLHQDWLNGKEYKCKVSNKALPLPEEKTISKAKGQPREPQVYTLPPSREEMTKNQVSLTCLVKGFYPSDIAVEWESNGQPENNYKTTPPVLDSDGSFFLYSKLTVDKSRWQQGNVFSCSVLHEALHSHYTQKSLSLSPGK light: DIQMTQSPSSLSASVGDTVTITCQANGYLNWYQQRRGKAPKLLIYDGSKLERGVPSRFSGRRWGQEYNLTINNLQPEDIATYFCQVYEFVVPGTNVDLKRTVAAPSVFIFPPSDEQLKSGTASVVCLLNNFYPREAKVQWKVDNALQSGNSQESVTEQDSKDSTYSLSSTLTLSKADYEKHKVYACEVTHQGLSSPVTKSFNRGEC | 0.92 | 0.9 |
| 1.1.29-1 (antibody, human IgG1, kappa) heavy: QVQLLQSGAAVTKPGASVRVSCEASGYNIRDYFIHWWRQAPGQGLQWVGWINPKTGQPNNPRQFQGRVSLTRHASWDFDTFSFYMDLKALRSDDTAVYFCARQRSDYWDFDVWGSGTQVTVSSASTKGPSVFPLAPSSKSTSGGTAALGCLVKDYFPEPVTVSWNSGALTSGVHTFPAVLQSSGLYSLSSVVTVPSSSLGTQTYICNVNHKPSNTKVDKKVEPKSCDKTHTCPPCPAPELLAGPDVFLFPPKPKDTLMISRTPEVTCVVVDVSHEDPEVKFNWYVDGVEVHNAKTKPREEQYNSTYRVVSVLTVLHQDWLNGKEYKCKVSNKALPLPEEKTISKAKGQPREPQVYTLPPSREEMTKNQVSLTCLVKGFYPSDIAVEWESNGQPENNYKTTPPVLDSDGSFFLYSKLTVDKSRWQQGNVFSCSVLHEALHSHYTQKSLSLSPGK light: DIQMTQSPSSLSASVGDTVTITCQANGYLNWYQQRRGKAPKLLIYDGSKLERGVPSRFSGRRWGQEYNLTINNLQPEDIATYFCQVYEFVGPGTNVDIKRTVAAPSVFIFPPSDEQLKSGTASVVCLLNNFYPREAKVQWKVDNALQSGNSQESVTEQDSKDSTYSLSSTLTLSKADYEKHKVYACEVTHQGLSSPVTKSFNRGEC | 1.01 | 0.91 |
| 1.1.30-1 (antibody, human IgG1, kappa) heavy: QVQLLQSGAAVTKPGASVRVSCEASGYNIRDYFIHWWRQAPGQGLQWVGWINPKTGQPNNPRQFQGRVSLTRHASWDFDTFSFYMDLKALRSDDTAVYFCARQRSDYWDFDVWGSGTQVTVSSASTKGPSVFPLAPSSKSTSGGTAALGCLVKDYFPEPVTVSWNSGALTSGVHTFPAVLQSSGLYSLSSVVTVPSSSLGTQTYICNVNHKPSNTKVDKKVEPKSCDKTHTCPPCPAPELLAGPDVFLFPPKPKDTLMISRTPEVTCVVVDVSHEDPEVKFNWYVDGVEVHNAKTKPREEQYNSTYRVVSVLTVLHQDWLNGKEYKCKVSNKALPLPEEKTISKAKGQPREPQVYTLPPSREEMTKNQVSLTCLVKGFYPSDIAVEWESNGQPENNYKTTPPVLDSDGSFFLYSKLTVDKSRWQQGNVFSCSVLHEALHSHYTQKSLSLSPGK light: DIQMTQSPSSLSASVGDTVTITCQANGYLNWYQQRRGKAPKLLIYDGSKLERGVPSRFSGRRWGQEYNLTINNLQPEDIATYFCQVYEFVTPGTNVDIKRTVAAPSVFIFPPSDEQLKSGTASVVCLLNNFYPREAKVQWKVDNALQSGNSQESVTEQDSKDSTYSLSSTLTLSKADYEKHKVYACEVTHQGLSSPVTKSFNRGEC | 0.86 | 0.9 |
| 1.1.27-1 (antibody, human IgG1, kappa) heavy: QVQLLQSGAAVTKPGASVRVSCEASGYNIRDYFIHWWRQAPGQGLQWVGWINPKTGQPNNPRQFQGRVSLTRHASWDFDTFSFYMDLKALRSDDTAVYFCARQRSDYWDFDVWGSGTQVTVSSASTKGPSVFPLAPSSKSTSGGTAALGCLVKDYFPEPVTVSWNSGALTSGVHTFPAVLQSSGLYSLSSVVTVPSSSLGTQTYICNVNHKPSNTKVDKKVEPKSCDKTHTCPPCPAPELLAGPDVFLFPPKPKDTLMISRTPEVTCVVVDVSHEDPEVKFNWYVDGVEVHNAKTKPREEQYNSTYRVVSVLTVLHQDWLNGKEYKCKVSNKALPLPEEKTISKAKGQPREPQVYTLPPSREEMTKNQVSLTCLVKGFYPSDIAVEWESNGQPENNYKTTPPVLDSDGSFFLYSKLTVDKSRWQQGNVFSCSVLHEALHSHYTQKSLSLSPGK light: DIQMTQSPSSLSASVGDTVTITCQANGYLNWYQQRRGKAPKLLIYDGSKLERGVPSRFSGRRWGQEYNLTINNLQPEDIATYFCQVYEFVVPGTRVDIKRTVAAPSVFIFPPSDEQLKSGTASVVCLLNNFYPREAKVQWKVDNALQSGNSQESVTEQDSKDSTYSLSSTLTLSKADYEKHKVYACEVTHQGLSSPVTKSFNRGEC | 0.99 | 0.97 |
| 1.1.28-1 (antibody, human IgG1, kappa) heavy: QVQLLQSGAAVTKPGASVRVSCEASGYNIRDYFIHWWRQAPGQGLQWVGWINPKTGQPNNPRQFQGRVSLTRHASWDFDTFSFYMDLKALRSDDTAVYFCARQRSDYWDFDVWGSGTQVTVSSASTKGPSVFPLAPSSKSTSGGTAALGCLVKDYFPEPVTVSWNSGALTSGVHTFPAVLQSSGLYSLSSVVTVPSSSLGTQTYICNVNHKPSNTKVDKKVEPKSCDKTHTCPPCPAPELLAGPDVFLFPPKPKDTLMISRTPEVTCVVVDVSHEDPEVKFNWYVDGVEVHNAKTKPREEQYNSTYRVVSVLTVLHQDWLNGKEYKCKVSNKALPLPEEKTISKAKGQPREPQVYTLPPSREEMTKNQVSLTCLVKGFYPSDIAVEWESNGQPENNYKTTPPVLDSDGSFFLYSKLTVDKSRWQQGNVFSCSVLHEALHSHYTQKSLSLSPGK light: DIQMTQSPSSLSASVGDTVTITCQANGYLNWYQQRRGKAPKLLIYDGSKLERGVPSRFSGRRWGQEYNLTINNLQPEDIATYFCQVYEFVVPGTNVDIKRTVAAPSVFIFPPSDEQLKSGTASVVCLLNNFYPREAKVQWKVDNALQSGNSQESVTEQDSKDSTYSLSSTLTLSKADYEKHKVYACEVTHQGLSSPVTKSFNRGEC | 0.93 | 0.98 |
| 1.1.26-1 (antibody, human IgG1, kappa) heavy: QVQLLQSGAAVTKPGASVRVSCEASGYNIRDYFIHWWRQAPGQGLQWVGWINPKTGQPNNPRQFQGRVSLTRHASWDFDTFSFYMDLKALRSDDTAVYFCARQRSDYWDFDVWGSGTQVTVSSASTKGPSVFPLAPSSKSTSGGTAALGCLVKDYFPEPVTVSWNSGALTSGVHTFPAVLQSSGLYSLSSVVTVPSSSLGTQTYICNVNHKPSNTKVDKKVEPKSCDKTHTCPPCPAPELLAGPDVFLFPPKPKDTLMISRTPEVTCVVVDVSHEDPEVKFNWYVDGVEVHNAKTKPREEQYNSTYRVVSVLTVLHQDWLNGKEYKCKVSNKALPLPEEKTISKAKGQPREPQVYTLPPSREEMTKNQVSLTCLVKGFYPSDIAVEWESNGQPENNYKTTPPVLDSDGSFFLYSKLTVDKSRWQQGNVFSCSVLHEALHSHYTQKSLSLSPGK light: DIQMTQSPSSLSASVGDTVTITCQANGYLNWYQQRRGKAPKLLIYDGSKLERGVPSRFSGRRWGQEYNLTINNLQPEDIATYFCQVYEFVVPGTRLDIKRTVAAPSVFIFPPSDEQLKSGTASVVCLLNNFYPREAKVQWKVDNALQSGNSQESVTEQDSKDSTYSLSSTLTLSKADYEKHKVYACEVTHQGLSSPVTKSFNRGEC | 1.07 | 0.96 |
